Source: publication PMC11886506

What was measured:
Experiment in all cases: EMSA
His-MBP = His-MBP (UniProt P0AEX9 27-396)
[1] = biological target: T1, MdEIL1 DNA-binding domain (His-MBP fusion) (UniProt D5L144 1-311)
T1 sequence: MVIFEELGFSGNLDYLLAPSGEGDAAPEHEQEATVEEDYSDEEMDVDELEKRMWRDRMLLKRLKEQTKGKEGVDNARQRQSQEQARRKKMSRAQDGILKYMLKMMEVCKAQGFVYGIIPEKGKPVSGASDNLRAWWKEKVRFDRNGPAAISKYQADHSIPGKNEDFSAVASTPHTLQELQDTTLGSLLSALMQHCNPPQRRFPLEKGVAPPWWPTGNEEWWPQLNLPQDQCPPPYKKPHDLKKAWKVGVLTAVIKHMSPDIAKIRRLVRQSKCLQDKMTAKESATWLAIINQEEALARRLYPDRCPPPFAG

[2] = biological target: T2, MdEIL3 DNA-binding domain (His-MBP fusion) (UniProt D5L146 1-311)
T2 sequence: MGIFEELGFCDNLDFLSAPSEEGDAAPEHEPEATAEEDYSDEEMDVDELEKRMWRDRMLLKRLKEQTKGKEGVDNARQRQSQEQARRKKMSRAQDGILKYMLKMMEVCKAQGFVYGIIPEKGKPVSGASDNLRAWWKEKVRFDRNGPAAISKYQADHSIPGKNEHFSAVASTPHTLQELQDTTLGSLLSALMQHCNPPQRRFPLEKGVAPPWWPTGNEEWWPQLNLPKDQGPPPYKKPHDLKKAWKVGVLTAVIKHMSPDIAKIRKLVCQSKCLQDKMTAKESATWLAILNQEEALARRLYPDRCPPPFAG

[3] = biological target: T3, MdEIL2 DNA-binding domain (His-MBP fusion) (UniProt D5L145 1-311)
T3 sequence: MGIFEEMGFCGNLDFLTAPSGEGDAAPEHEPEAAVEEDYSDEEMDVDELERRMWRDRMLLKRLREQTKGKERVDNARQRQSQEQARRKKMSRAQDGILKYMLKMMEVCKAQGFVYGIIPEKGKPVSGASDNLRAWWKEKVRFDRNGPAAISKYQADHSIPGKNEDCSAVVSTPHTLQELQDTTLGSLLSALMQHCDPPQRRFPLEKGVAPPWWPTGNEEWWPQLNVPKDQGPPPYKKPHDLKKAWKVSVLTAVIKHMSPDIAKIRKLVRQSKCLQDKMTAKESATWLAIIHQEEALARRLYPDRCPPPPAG

B1: proMdAFS1 WT probe (dsDNA)
DNA 1: CCCACCCCTCCGGAGATTCATTTGATATCCCA
DNA 2: TGGGATATCAAATGAATCTCCGGAGGGGTGGG
His-MBP
  binding result: no binding
[1]
  binding result: binds
[2]
  binding result: binds
[3]
  binding result: binds

B2: proMdAFS1 MUT probe (dsDNA)
DNA 1: CCCACCCCTCCGGTAGCCTCTTTGATATCCCA
DNA 2: TGGGATATCAAAGAGGCTACCGGAGGGGTGGG
[1]
  binding result: no binding
[2]
  binding result: no binding
[3]
  binding result: no binding
